Assay results as given in publication PMC6893557 (2019).

Target: pYEEI
Experiment: SPR

B1: Hck SH2 (protein)
chain: WFFKGISRKDAERQLLAPGNMLGSFMIRDSETTKGSYSLSVRDYDPRQGDTVKHYKIRTLDNGGFYISPRSTFSTLQELVDHYKKGNDGLCQKLSVPC
Question: Which Kd does the source give for B1 here?
Answer: 42 µM
